Assay in all cases: fluorescence polarisation
Test [1] has as its target soluble HLA-A*03:01 class I molecule (fluorescence polarization assay).
Test [2] concerns the target soluble HLA-A*11:01 class I molecule (fluorescence polarization assay).
The target in test [3] is soluble HLA-B*07:02 class I molecule (fluorescence polarization assay).
Test [4] concerns the target soluble HLA-A*02:01 class I molecule (fluorescence polarization assay).

In the case of ALLAVGATK [gp17-25 peptide, Melanocyte protein PMEL], the concentration for half-maximal inhibition (IC50) in test [1] was found to be 0.962 µM; in test [2] it was 0.225 µM.
In the same order, the values of VVVGARGVGK [KRAS G12R 7-16 peptide] are 3.24 µM and 0.566 µM.
As for GAGGVGKSAL [KRAS 10-19 wild-type peptide], the IC50 in test [3] stood at 76.9 µM.
On to VVGARGVGK [KRAS G12R 8-16 peptide], for which the 50% inhibitory concentration (IC50) worked out at 5.3 µM in test [1] and 0.634 µM in test [2].
On to KLVVVGARGV [KRAS G12R 5-14 peptide], for which the IC50 in test [4] was 20.7 µM.
Still for that read-out and setting: the result for KLVVVGAGGV [KRAS 5-14 wild-type peptide] reads 10.9 µM.

A word on the IC50: it is the point on the concentration scale where inhibition reaches its midpoint. Lower therefore signals greater potency in that assay.

Values taken from PMC8285372, “Biochemical and functional characterization of mutant KRAS epitopes validates this oncoprotein for immunological targeting” (Nature Communications, 2021).
